One molecule from PMC7837408 (Developmental cell, 2021) can be followed below.

In the experiment the target is T1, mScarlet-V5-TurboID-Rab9a (human, UniProt P51151 1-201).
T1 sequence (looked up): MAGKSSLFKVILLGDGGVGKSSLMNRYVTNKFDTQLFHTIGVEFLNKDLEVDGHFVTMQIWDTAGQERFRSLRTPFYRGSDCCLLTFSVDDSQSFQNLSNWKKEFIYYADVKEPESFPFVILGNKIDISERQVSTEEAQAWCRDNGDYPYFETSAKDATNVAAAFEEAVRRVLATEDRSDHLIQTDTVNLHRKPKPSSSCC
Nature of the experiment: proximity labelling.

B1: Reticulon-3L (Rtn3L), endogenous (natural protein, human (endogenous in HeLa), UniProt O95197-2 1-1013, looked up)
chain: MAEPSAATQSHSISSSSFGAEPSAPGGGGSPGACPALGTKSCSSSCAEGLSSLCSDEPSSEIMTSSFLSSSEIHNTGLTILHGEKSHVLGSQPILAKEGKDHLDLLDMKKMEKPQGTSNNVSDSSVSLAAGVHCDRPSIPASFPEHPAFLSKKIGQVEEQIDKETKNPNGVSSREAKTALDADDRFTLLTAQKPPTEYSKVEGIYTYSLSPSKVSGDDVIEKDSPESPFEVIIDKAAFDKEFKDSYKESTDDFGSWSVHTDKESSEDISETNDKLFPLRNKEAGRYPMSALLSRQFSHTNAALEEVSRCVNDMHNFTNEILTWDLVPQVKQQTDKSSDCITKTTGLDMSEYNSEIPVVNLKTSTHQKTPVCSIDGSTPITKSTGDWAEASLQQENAITGKPVPDSLNSTKEFSIKGVQGNMQKQDDTLAELPGSPPEKCDSLGSGVATVKVVLPDDHLKDEMDWQSSALGEITEADSSGESDDTVIEDITADTSFENNKIQAEKPVSIPSAVVKTGEREIKEIPSCEREEKTSKNFEELVSDSELHQDQPDILGRSPASEAACSKVPDTNVSLEDVSEVAPEKPITTENPKLPSTVSPNVFNETEFSLNVTTSAYLESLHGKNVKHIDDSSPEDLIAAFTETRDKGIVDSERNAFKAISEKMTDFKTTPPVEVLHENESGGSEIKDIGSKYSEQSKETNGSEPLGVFPTQGTPVASLDLEQEQLTIKALKELGERQVEKSTSAQRDAELPSEEVLKQTFTFAPESWPQRSYDILERNVKNGSDLGISQKPITIRETTRVDAVSSLSKTELVKKHVLARLLTDFSVHDLIFWRDVKKTGFVFGTTLIMLLSLAAFSVISVVSYLILALLSVTISFRIYKSVIQAVQKSEEGHPFKAYLDVDITLSSEAFHNYMNAAMVHINRALKLIIRLFLVEDLVDSLKLAVFMWLMTYVGAVFNGITLLILAELLIFSVPIVYEKYKTQIDHYVGIARDQTKSIVEKIQAKLPGIAKKKAE
modifications: biotinylated by TurboID in cells (sites not given)
Consider B1, for which the “fold Rtn3L biotinylation, WT Rab9a against Rab9aΔFSV” value stood at 10 fold.
